In paper PMC8687477 (2021) one finds Kd and koff data, which are given here for 9 molecules.

B1: recombinant human CXCL11 (ligand)
chain: FPMFKRGRCLCIGPGVKAVKVADIEKASIMYPSNNCDKIEVIITLKENKGQRCLNPKSKQARLIIKKVERKNF
B2: recombinant human CXCL9 (ligand)
chain: TPVVRKGRCSCISTNQGTIHLQSLKDLKQFAPSPSCEKIEIIATLKNGVQTCLNPDSADVKELIKKWEKQVSQKKKQKNGKKHQKKKVLKVRKSQRSRQKKTT
B3: recombinant human CCL26 (ligand)
chain: TRGSDISKTCCFQYSHKPLPWTWVRSYEFTSNSCSQRAVIFTTKRGKKVCTHPRKKWVQKYISLLKTPKQL
B4: recombinant human CCL28 (ligand)
chain: SEAILPIASSCCTEVSHHISRRLLERVNMCRIQRADGDCDLAAVILHVKRRRICVSPHNHTVKQWMKVQAAKKNGKGNVCHRKKHHGKRNSNRAHQGKHETYGHKTPY
B5: recombinant human CXCL4 (ligand)
chain: EAEEDGDLQCLCVKTTSQVRPRHITSLEVIKAGPHCPTAQLIATLKNGRKICLDLQAPLYKKIIKKLLES
B6: recombinant human CCL11 (ligand)
chain: not shown
B7: recombinant human CXCL14 (ligand)
chain: SKCKCSRKGPKIRYSDVKKLEMKPKYPHCEEKMVIITTKSVSRYRGQEHCLHPKLQSTKRFIKWYNAWNEKRRVYEE
B8: recombinant human CCL21 (ligand)
chain: SDGGAQDCCLKYSQRKIPAKVVRSYRKQEPSLGCSIPAILFLPRKRSQAELCADPKELWVQQLMQHLDKTPSPQKPAQGCRKDRGASKTGKKGKGSKGCKRTERSQTPKGP
B9: recombinant human CCL5 (ligand)
chain: SPYSSDTTPCCFAYIARPLPRAHIKEYFYTSGKCSNPAVVFVTRKNRQVCANPEKKWVREYINSLEMS

The target in the first experiment is T1, SARS-CoV-2 nucleocapsid protein (N), 2X-StrepTag tagged (SARS-CoV-2, UniProt P0DTC9 1-419). Briefly: BLI.
B1 registered a Kd of 130 nM.

In turn, B2 registered a Kd of 12 nM. Compared with the last molecule, the Kd is about 11-fold lower.

Turning to B3, the affinity, expressed as Kd, was 26 nM. Against the preceding molecule, the Kd is about 2.2-fold higher.

The molecule B4 yielded a dissociation constant (Kd) of 22 nM.

On to B5, for which the affinity, expressed as Kd, was 170 nM. This Kd is about 7.7-fold higher than that of the molecule before.

B6 yielded a dissociation constant Kd of 72 nM.

In turn, B7 returned a Kd of 45 nM. This Kd is about 1.6-fold lower than that of the molecule before.

On to B8, for which the equilibrium dissociation constant (Kd) came out at 14 nM.

A further experiment deals with T1, SARS-CoV-2 nucleocapsid protein (N), …. The experiment is described as follows: BLI. The source holds these as a separate data set.
The molecule B1 came in with a dissociation rate constant (koff) of 0.0033 s⁻¹.

As for B2, the koff stood at 0.00085 s⁻¹.

B3 yielded a koff of 0.00093 s⁻¹.

B4 displayed a koff of 0.00087 s⁻¹.

As to B9, the off-rate (koff) was 0.00019 s⁻¹.

As to B5, the koff is 0.00053 s⁻¹.

B6 gave a koff of 0.0045 s⁻¹.

For the molecule B7, the koff was 0.0019 s⁻¹.

Regarding B8, the off-rate constant (koff) was 0.0014 s⁻¹.
